Experimental data from patent US12221488B2, “APJ antibody, fusion protein thereof with Elabela, and pharmaceutical compositions and use thereofus01” (GMAX BIOPHARM LLC, priority 2018, dated 2025).
Values belong to the molecule of their own block, whether it stands above or below them. Where no end group is shown, it is not given here.

Experiments:
hAPJ [1] = target: T1, hAPJ (Homo sapiens, UniProt P35414); assay: Reporter gene assay (hAPJ-CRE-Luciferase CHO-DHFR- cells) of in vitro activation of Elabela/APJ signaling pathway; format: cell-based; settings: for EC50: 0.6 μM forskolin, 6 hours at 37° C., Bright Glo readout; for blocking or activation of APJ receptor by the antibody: reporter gene assay
T1 construct: expressed in transfected cells; host or cells: CHO-DHFR- cells expressing hAPJ and a CRE-luciferase reporter
T1 sequence (P35414 1-380): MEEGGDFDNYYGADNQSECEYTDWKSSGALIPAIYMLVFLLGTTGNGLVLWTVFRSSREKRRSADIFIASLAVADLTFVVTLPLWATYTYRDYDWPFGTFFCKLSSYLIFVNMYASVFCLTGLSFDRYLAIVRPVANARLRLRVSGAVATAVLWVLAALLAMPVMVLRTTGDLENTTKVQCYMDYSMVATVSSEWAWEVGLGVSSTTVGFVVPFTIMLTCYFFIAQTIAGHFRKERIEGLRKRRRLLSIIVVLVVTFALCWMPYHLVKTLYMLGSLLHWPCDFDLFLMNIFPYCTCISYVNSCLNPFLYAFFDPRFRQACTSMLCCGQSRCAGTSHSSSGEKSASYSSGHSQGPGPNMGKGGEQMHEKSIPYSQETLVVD
Experimental: 35000 hAPJ-CRE-Luciferase expressing CHO-DHFR-cells per well were seeded into 96 well plate, and cultured overnight at 37° C. The culture supernatant was removed the second day, cells were washed twice with serum-free medium, and the residue liquid was aspirated. 50 μL of 0.6 μM forskolin was added in 96 well plate in advance, then 50 μL of Elabela fusion protein or Elabela-11 polypeptide diluted in serum-free medium was added, and incubated at 37° C. for 6 hours. After stimulation, 100 μL Bright Glo chemical luminescence substrate (Promega) was added, then the cell lysate was transferred to white 96 well plate, and the relative intensity of […] was read in the SpectraMax L (Molecular Devices). The data were fitted with prism5.0 and EC50 was calculated.

hAPJ [2] = target: T1, hAPJ; assay: FACS analysis of binding of APJ antibodies to CHO-DHFR-hAPJ cells; settings: mouse ascites antibody at 500 nM and 4 nM on CHO-DHFR-hAPJ; negative control 500 nM on blank CHO-DHFR- cells
Experimental: PBS containing EDTA was used to detach and collect 10^5 CHO-DHFR-hAPJ cells into 1.5 mL EP tubes. The supernatant was removed after centrifugation. The negative control sample was resuspended with a FACS loading buffer (PBS, 2% FBS). For the positive control, 200 μL antibody supernatant with certain concentration was added to resuspend cells and then incubated at room temperature; the cells were then centrifuged at 1500 rpm to remove the supernatant, washed with a FACS loading buffer and centrifuged again. The cells were resuspended followed by addition (200 μL/well) of a FITC labeled goat anti-mouse fluorescent secondary antibody at 1:50 dilution and incubated at room temperature for 30 min in the dark. Supernatant was removed after centrifugation, cells were washed with FACS loading buffer, centrifuged again and resuspended with the loading buffer for analysis.

Molecule: L5H5 and Linker2-EA3: fusion protein of hAPJ antibody L5H5 and Linker2-EA3 (comprising SEQ ID NO: 123 and SEQ ID NO: 109) (GGGGSGGGGSQRRCMPLHSRVPMPF; also: fused to hAPJ antibody L5H5)
- EC50 (hAPJ [1]): 20.3 nM
- EC50 (hAPJ [1]; listed as L5H5 and linker2-EA3): 20.3 nM

Molecule: L5H5 and Linker2-EA5: fusion protein of hAPJ antibody L5H5 and Linker2-EA5 (comprising SEQ ID NO: 123 and SEQ ID NO: 94) (GGGGSGGGGSQRRCMPLHSRVPAP; also: fused to hAPJ antibody L5H5)
- EC50 (hAPJ [1]): 2.6 nM
- EC50 (hAPJ [1]; listed as L5H5 and linker2-EA5): 2.55 nM

B1: L4H4: APJ antibody with light chain variable domain SEQ ID NO: 62 and heavy chain variable domain SEQ ID NO: 67 (antibody, listed as Mus musculus, V domains shown)
VH: EIKLVESGGGLVKPRGSLKLSCAASGFTFSSYAMSWVRQTPEKRLEWVASISSGGSIYLPDSLKGRFTISRDNAWNILYLQMNSLKSEDTAMYYCTRGRGNSSAWFAYWGQGTLVTVSA
VL: DVLMTQTPLSLPVSLGDQASISCRSDQSLVHRTGNTHLDWYLQKPGQSPKLLIYKVSNRFSGVPDRFSGSGSGTDFTLKISRVEAEDLGVYYCFQASHIPFTFGSGTKLEIKR
- specific binding to hAPJ (FACS peak shift versus negative control) (hAPJ [2]): shifted to the right obviously
- blocking or activation of APJ receptor by the antibody (hAPJ [1]): did not block or activate APJ receptor

Continued, values first:

- EC50 (hAPJ [1]): 5.4 nM
- EC50 (hAPJ [1]; listed as L5H5 and linker2-EA4): 5.43 nM
Molecule: L5H5 and Linker2-EA4: fusion protein of hAPJ antibody L5H5 and Linker2-EA4 (comprising SEQ ID NO: 123 and SEQ ID NO: 116) (GGGGSGGGGSQRRCLSHKGPMPF; also: fused to hAPJ antibody L5H5)

- specific binding to hAPJ (FACS peak shift versus negative control) (hAPJ [2]): shifted to the right obviously
- blocking or activation of APJ receptor by the antibody (hAPJ [1]): did not block or activate APJ receptor
B2: L1H1: APJ antibody with light chain variable domain SEQ ID NO: 59 and heavy chain variable domain SEQ ID NO: 64 (antibody, listed as Mus musculus, V domains shown)
VH: EVQLIETGGGLVQPTGSLQLSCAASGFPFNINAMNWVRQAPGKGLEWVARIRSKSNNYATYYADSVKDRFTISRDDSQSILYLQMNNLKTEDSAMYFCVRGPYLYAMDYWGQGTSVTVSS
VL: DIQMNQSPSSLSASLGDTITITCHASQNIHVWLSWYQQKPGNIPKLLIYKASNLHTGVPSRFSGSGSGTGFTLTISSLQPEDIATYYCQQGHSYPLTFGGGTKLEIKR
